Test results as given in patent publication US20180305423A1 (OKLAHOMA MEDICAL RESEARCH FOUNDATION, published 2018).

T1: IRS1 (insulin receptor substrate) (UniProt P35569 1-1233)
T1 sequence (looked up): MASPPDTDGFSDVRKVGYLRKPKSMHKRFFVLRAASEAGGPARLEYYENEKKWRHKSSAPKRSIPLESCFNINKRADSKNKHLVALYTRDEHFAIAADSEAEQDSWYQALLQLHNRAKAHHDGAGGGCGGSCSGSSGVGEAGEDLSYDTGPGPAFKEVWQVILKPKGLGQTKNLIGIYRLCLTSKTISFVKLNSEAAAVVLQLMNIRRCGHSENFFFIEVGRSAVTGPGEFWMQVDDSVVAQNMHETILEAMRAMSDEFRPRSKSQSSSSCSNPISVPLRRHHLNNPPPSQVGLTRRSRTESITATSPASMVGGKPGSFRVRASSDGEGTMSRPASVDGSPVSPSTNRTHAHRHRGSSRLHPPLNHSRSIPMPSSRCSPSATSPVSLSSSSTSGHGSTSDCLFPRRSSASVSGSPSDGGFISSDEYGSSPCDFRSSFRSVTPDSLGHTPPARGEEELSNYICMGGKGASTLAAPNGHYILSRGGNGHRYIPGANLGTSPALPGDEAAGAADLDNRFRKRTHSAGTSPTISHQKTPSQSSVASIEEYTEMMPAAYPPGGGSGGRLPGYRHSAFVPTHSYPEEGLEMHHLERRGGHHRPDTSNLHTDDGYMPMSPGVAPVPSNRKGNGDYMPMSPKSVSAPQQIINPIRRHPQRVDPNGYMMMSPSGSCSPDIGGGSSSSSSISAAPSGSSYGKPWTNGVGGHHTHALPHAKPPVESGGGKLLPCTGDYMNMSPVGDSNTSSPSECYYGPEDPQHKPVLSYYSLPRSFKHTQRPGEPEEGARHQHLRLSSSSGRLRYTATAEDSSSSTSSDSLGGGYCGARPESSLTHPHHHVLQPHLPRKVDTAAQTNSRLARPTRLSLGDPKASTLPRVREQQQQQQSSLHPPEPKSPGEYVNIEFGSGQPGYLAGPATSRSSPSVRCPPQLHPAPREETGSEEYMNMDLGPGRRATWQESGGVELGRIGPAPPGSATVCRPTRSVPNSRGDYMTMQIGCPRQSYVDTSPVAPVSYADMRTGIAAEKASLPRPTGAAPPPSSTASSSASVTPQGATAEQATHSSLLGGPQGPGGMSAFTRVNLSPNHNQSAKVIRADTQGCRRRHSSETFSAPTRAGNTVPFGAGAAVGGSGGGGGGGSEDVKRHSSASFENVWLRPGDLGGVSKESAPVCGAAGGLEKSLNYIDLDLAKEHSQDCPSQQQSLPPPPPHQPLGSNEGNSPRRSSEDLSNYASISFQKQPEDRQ

B1: Epsin 1 (endogenous, HUVEC^αvβ3 cells) (other, human, UniProt Q9Y6I3 1-576, looked up)
chain: MSTSSLRRQMKNIVHNYSEAEIKVREATSNDPWGPSSSLMSEIADLTYNVVAFSEIMSMIWKRLNDHGKNWRHVYKAMTLMEYLIKTGSERVSQQCKENMYAVQTLKDFQYVDRDGKDQGVNVREKAKQLVALLRDEDRLREERAHALKTKEKLAQTATASSAAVGSGPPPEAEQAWPQSSGEEELQLQLALAMSKEEADQPPSCGPEDDAQLQLALSLSREEHDKEERIRRGDDLRLQMAIEESKRETGGKEESSLMDLADVFTAPAPAPTTDPWGGPAPMAAAVPTAAPTSDPWGGPPVPPAADPWGGPAPTPASGDPWRPAAPAGPSVDPWGGTPAPAAGEGPTPDPWGSSDGGVPVSGPSASDPWTPAPAFSDPWGGSPAKPSTNGTTAAGGFDTEPDEFSDFDRLRTALPTSGSSAGELELLAGEVPARSPGAFDMSGVRGSLAEAVGSPPPAATPTPTPPTRKTPESFLGPNAALVDLDSLVSRPGPTPPGAKASNPFLPGGGPATGPSVTNPFQPAPPATLTLNQLRLSPVPPVPGAPPTYISPLGGGPGLPPMMPPGPPAPNTNPFLL
notes: also called endogenous epsin 1
B2: Epsin 1 (endogenous, MAEC and 3T3-L1 cells) (other, mouse, UniProt Q80VP1 1-575, looked up)
chain: MSTSSLRRQMKNIVHNYSEAEIKVREATSNDPWGPSSSLMSEIADLTYNVVAFSEIMSMIWKRLNDHGKNWRHVYKAMTLMEYLIKTGSERVSQQCKENMYAVQTLKDFQYVDRDGKDQGVNVREKAKQLVALLRDEDRLREERAHALKTKEKLAQTATASSAAVGSGPPPEAEQAWPQSSGEEELQLQLALAMSKEEADQPPSCGPEDDVQLQLALSLSREEHDKEERIRRGDDLRLQMAIEESKRETGGKEESSLMDLADVFTTPAPPQASDPWGGPASVPTAVPVAAAASDPWGGPAVPPAADPWGGAAPTPASGDPWRPAAPTGPSVDPWGGTPAPAAGEGPTPDPWGSSDGGAPVSGPPSSDPWAPAPAFSDPWGGSPAKPSSNGTAVGGFDTEPDEFSDFDRLRTALPTSGSSTGELELLAGEVPARSPGAFDMSGVGGSLAESVGSPPPAATPTPTPPTRKTPESFLGPNAALVDLDSLVSRPGPTPPGSKASNPFLPSGAPPTGPSVTNPFQPAPPATLTLNQLRLSPVPPVPGAPPTYISPLGGGPGLPPMMPPGPPAPNTNPFLL
notes: also called epsins

What was measured:
[1] = biological target: T2, VEGFR2 (endogenous, HUVEC^αvβ3 cells) (human, UniProt P35968 20-1356); assay: co-IP with anti-VEGFR2 from HUVECαvβ3 cells, blot for Epn1, with quantification [panel B]
T2 construct: whole, on cells

[2] = biological target: T3, IP3R1 (IP3 receptor 1, ITPR1) (mouse, UniProt P11881 1-2749, limits assumed); assay: IP with epsin 1 antibody from oxLDL-treated MAEC, gel for mass spectrometry [panel A]
T3 construct: also called IP3 Receptors

[3] = biological target: T1, IRS1 (insulin receptor substrate); assay: co-IP with anti-epsin 1 from 3T3-L1 pre-adipocytes with or without insulin, blot for IRS1

T2 sequence (P35968 20-1356): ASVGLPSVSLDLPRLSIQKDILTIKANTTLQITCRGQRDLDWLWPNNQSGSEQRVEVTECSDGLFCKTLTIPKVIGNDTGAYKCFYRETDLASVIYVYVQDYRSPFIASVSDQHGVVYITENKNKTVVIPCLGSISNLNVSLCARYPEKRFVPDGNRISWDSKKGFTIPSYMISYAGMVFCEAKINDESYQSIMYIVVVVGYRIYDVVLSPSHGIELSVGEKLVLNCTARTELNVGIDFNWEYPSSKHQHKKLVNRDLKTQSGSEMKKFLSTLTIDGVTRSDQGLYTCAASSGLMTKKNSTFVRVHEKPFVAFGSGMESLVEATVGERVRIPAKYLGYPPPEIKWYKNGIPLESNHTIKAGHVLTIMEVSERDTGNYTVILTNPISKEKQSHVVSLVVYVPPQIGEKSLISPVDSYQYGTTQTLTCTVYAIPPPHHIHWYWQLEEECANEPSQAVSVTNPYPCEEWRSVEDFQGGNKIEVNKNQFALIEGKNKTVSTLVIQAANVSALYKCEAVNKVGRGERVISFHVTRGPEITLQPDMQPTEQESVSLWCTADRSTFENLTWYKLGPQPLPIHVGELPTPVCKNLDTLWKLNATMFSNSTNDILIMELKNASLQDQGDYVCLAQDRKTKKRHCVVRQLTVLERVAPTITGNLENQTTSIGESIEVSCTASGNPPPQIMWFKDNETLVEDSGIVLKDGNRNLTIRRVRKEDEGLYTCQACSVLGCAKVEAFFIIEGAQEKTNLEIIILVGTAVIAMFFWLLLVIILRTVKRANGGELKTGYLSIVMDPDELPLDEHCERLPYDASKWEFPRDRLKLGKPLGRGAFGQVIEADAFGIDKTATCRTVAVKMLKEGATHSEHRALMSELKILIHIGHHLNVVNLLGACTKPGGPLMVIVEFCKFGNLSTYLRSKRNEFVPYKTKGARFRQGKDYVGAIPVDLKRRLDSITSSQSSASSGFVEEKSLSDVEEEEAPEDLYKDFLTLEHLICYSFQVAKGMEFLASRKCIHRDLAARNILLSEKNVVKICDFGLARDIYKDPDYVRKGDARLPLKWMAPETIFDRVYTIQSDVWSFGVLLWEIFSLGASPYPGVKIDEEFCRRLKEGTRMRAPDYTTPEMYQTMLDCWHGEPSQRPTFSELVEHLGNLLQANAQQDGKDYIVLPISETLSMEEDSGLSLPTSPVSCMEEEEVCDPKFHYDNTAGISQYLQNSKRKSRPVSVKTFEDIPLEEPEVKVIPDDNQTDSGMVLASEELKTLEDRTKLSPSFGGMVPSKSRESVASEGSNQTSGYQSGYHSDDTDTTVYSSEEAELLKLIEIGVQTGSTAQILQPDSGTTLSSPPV
T3 sequence (P11881 whole entry): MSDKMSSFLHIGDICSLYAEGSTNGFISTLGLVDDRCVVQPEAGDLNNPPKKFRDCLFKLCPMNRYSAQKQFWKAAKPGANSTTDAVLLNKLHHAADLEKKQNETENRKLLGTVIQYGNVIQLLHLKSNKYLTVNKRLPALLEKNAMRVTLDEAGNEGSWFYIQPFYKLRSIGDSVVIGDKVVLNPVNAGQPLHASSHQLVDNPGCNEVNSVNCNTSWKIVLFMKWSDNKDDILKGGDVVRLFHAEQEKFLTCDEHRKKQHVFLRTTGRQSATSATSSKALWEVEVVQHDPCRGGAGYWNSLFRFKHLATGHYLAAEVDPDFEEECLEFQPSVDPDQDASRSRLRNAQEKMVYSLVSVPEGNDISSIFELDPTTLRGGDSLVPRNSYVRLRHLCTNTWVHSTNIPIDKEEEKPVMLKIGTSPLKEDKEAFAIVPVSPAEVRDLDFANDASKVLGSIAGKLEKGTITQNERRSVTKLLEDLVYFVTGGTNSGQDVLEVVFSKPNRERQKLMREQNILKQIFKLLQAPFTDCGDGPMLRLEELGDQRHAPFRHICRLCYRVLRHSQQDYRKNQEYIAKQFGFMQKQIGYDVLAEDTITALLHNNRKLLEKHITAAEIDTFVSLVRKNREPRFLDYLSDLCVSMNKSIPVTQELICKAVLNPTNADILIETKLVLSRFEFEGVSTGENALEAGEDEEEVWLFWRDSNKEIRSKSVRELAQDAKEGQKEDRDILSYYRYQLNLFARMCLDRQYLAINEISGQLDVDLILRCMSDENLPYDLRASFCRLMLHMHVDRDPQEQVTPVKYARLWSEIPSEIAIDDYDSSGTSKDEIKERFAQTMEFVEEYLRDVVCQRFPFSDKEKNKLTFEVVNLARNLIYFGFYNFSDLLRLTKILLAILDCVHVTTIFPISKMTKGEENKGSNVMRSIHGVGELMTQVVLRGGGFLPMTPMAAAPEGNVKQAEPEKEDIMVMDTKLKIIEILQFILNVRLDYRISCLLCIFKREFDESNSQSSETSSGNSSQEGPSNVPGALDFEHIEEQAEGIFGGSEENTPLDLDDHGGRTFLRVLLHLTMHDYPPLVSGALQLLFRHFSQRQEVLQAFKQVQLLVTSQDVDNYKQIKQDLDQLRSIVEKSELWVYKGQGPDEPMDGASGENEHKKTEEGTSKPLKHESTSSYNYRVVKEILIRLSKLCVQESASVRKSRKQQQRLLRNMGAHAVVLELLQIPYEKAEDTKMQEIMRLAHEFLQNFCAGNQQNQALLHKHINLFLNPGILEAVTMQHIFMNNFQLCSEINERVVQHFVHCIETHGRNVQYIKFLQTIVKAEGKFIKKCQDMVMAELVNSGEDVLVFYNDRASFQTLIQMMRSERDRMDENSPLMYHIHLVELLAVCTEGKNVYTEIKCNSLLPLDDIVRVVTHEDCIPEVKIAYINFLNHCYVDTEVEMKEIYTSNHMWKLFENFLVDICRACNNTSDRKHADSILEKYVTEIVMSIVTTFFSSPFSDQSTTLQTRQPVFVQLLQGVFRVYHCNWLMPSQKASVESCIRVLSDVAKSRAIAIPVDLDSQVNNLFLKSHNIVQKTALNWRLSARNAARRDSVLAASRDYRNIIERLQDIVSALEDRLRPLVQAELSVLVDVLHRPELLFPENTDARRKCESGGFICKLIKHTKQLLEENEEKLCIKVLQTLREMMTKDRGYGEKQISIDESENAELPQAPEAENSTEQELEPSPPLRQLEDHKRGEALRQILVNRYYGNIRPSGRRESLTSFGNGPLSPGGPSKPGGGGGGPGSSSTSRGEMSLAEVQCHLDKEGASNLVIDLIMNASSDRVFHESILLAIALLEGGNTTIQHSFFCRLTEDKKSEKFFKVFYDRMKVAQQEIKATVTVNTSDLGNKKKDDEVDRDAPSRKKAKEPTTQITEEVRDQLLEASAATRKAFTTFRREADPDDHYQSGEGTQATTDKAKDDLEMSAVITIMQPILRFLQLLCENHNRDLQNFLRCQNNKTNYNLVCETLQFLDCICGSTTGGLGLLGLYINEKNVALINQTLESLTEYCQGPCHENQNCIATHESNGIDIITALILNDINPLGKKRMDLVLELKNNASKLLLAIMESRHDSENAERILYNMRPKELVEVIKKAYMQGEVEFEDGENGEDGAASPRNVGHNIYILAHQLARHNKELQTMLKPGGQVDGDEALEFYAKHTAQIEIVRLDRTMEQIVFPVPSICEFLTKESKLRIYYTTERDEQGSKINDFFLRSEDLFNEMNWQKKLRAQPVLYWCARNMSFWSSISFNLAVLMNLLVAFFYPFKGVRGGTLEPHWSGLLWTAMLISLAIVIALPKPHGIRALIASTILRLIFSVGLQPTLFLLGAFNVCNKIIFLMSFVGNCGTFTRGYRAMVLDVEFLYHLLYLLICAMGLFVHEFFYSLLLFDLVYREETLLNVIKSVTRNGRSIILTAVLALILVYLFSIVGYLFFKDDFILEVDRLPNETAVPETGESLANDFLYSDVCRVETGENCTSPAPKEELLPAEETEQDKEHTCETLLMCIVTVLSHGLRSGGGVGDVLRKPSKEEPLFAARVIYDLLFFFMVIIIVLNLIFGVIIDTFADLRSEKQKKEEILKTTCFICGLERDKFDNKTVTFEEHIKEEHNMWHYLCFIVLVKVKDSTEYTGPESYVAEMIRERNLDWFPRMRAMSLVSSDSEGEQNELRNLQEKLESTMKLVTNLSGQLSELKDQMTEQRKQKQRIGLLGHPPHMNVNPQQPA

Row | Binder | binding result [1] | binding result [2] | binding result [3]
1 | B1 | binds | – | –
2 | B2 | – | binds | binds
